Data reported in patent US20080267974A1 (SCHERING, published 2008).
Values joined by “and” are separate entries in the source; they are usually repeats but may differ in a detail not shown here. Equal values may be shown once. Read-outs that look alike come from different tables or passages of the source.

Key:
[1] = target: T1, tumor necrosis factor alpha (TNFα) (human, UniProt P01375 77-233); assay: affinity by IC50 ELISA (so named in paragraph 380)
[2] = target: T1, tumor necrosis factor alpha (TNFα); assay: cell-based or functional assay
[3] = target: T1, tumor necrosis factor alpha (TNFα); assay: affinity by IC50 ELISA (so named in paragraph 380); remark: listed apart in the source
[4] = target: T1, tumor necrosis factor alpha (TNFα); assay: affinity by IC50 ELISA (so named in paragraph 380); remark: listed apart in the source
[5] = target: T1, tumor necrosis factor alpha (TNFα); assay: affinity by IC50 ELISA (so named in paragraph 380); remark: listed apart in the source
[6] = target: T1, tumor necrosis factor alpha (TNFα); assay: affinity by IC50 ELISA (so named in paragraph 380); remark: listed apart in the source

T1 sequence (P01375 77-233 limits assumed): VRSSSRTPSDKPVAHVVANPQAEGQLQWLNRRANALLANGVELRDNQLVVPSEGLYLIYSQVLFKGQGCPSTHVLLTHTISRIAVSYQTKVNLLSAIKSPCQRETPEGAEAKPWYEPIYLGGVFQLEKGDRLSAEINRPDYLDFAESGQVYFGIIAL

Binder | Affinity [1] [nM] | IC50, TNFα cytotoxicity assay (WEHI-13VAR cells) [2] | Affinity [3] [nM] | Affinity [4] [nM] | Affinity [5] [nM] | Affinity [6] [nM]
MAb 695 (antibody, V domains shown, also called 121 D11; H1192/L250) VH: EVQLLESGGGLIQPGGSLRLSCAASGFTVSSNYMSWVRQAPGKGLEWVSVIYSGGRTYYADSVKGRFTISRDSSKNTLYLQMNSLRAEDTAVYYCARNYYGSTYDYWGQGTLVTVSS VL: EIVLTQSPVTLSVPPGERASLSCRASQNIYTAVAWYQQKPGQAPRLLIYGASTRATGIPARFSGGGSGTDYTLTISSLESEDFAVYHCQQYHSWPLTFGGGTKLEIK | 0.6 | 22.9 nM | 0.6 |  |  | 
MAb 1042 (antibody, V domains shown, IgG1/kappa, CHO; also called H1482/L332) VH: EVQLLESGGGLIQPGGSLRLSCAASGFTVSSNYMSWVRQAPGKGLEWVSVIYSGGRTYYADSVKGRFTISRDSSKNTLYLQMNSLRAEDTAVYYCARNYYGSTFDYWGQGTLVTVSS VL: EIVLTQSPVTLSVPPGERASLSCRASQNIYTAVAWYQQKPGQAPRLLIYGASTRATGIPARFSGGGSGTDYTLTISSLESEDFAVYHCQQWHSWPLTFGGGTKLEIK |  |  |  | 0.07 | 0.07 | 
MAb 805 (antibody, V domains shown, also called 156 H7; H1329/L250) VH: EVQLVESGGGLIQPGGSLRLSCAVSGLNVSRDYMSWVRQAPGKGLEWISVIYRGGATMYADSVKGRFTISRDTSKNTVFLQMSRLKVADTAVYYCARNYYGSTYDYWGQGTLVTVSS VL: EIVLTQSPVTLSVPPGERASLSCRASQNIYTAVAWYQQKPGQAPRLLIYGASTRATGIPARFSGGGSGTDYTLTISSLESEDFAVYHCQQYHSWPLTFGGGTKLEIK | 0.6 | 4.8 nM and 10.3 nM | 0.6 |  |  | 
MAb 1036 (antibody, V domains shown, IgG1/kappa, CHO; also called H1478/L332) VH: EVQLLESGGGLIQPGGSLRLSCAASGFTVSSNYMSWVRQAPGKGLEWVSVIYSGGRTYYADSVKGRFTISRDSSKNTLYLQMNSLRAEDTAVYYCARTYYGSTYDYWGQGTLVTVSS VL: EIVLTQSPVTLSVPPGERASLSCRASQNIYTAVAWYQQKPGQAPRLLIYGASTRATGIPARFSGGGSGTDYTLTISSLESEDFAVYHCQQWHSWPLTFGGGTKLEIK |  |  |  | 0.18 | 0.18 | 
MAb 714 (antibody, V domains shown, also called 141 A10; H1277/L250) VH: EVQLVESGGGLVQPGGSLKLSCAASGFTVSSNYMSWVRQAPGKGLEWVSVIYRGGSTYYADSVKGRFTISRDISRNMVYLQMNSLRAEDTAVYYCARNYYGSTYDYWGQGTLVTVSS VL: EIVLTQSPVTLSVPPGERASLSCRASQNIYTAVAWYQQKPGQAPRLLIYGASTRATGIPARFSGGGSGTDYTLTISSLESEDFAVYHCQQYHSWPLTFGGGTKLEIK | 0.4 | 7.75 nM | 0.4 |  |  | 
MAb 715 (antibody, V domains shown, also called 141 F2; H1278/L250) VH: EVQLLESGGGLIQPGGSLRLSCAASGFTVSNNYMSWVRQAPGKGLQWVAVIYSGGSTYYPDSMKGRFTISRDNSKNTLYLQMNSLRAEDTAVYYCARNYYGSTYDYWGQGTLVTVSS VL: EIVLTQSPVTLSVPPGERASLSCRASQNIYTAVAWYQQKPGQAPRLLIYGASTRATGIPARFSGGGSGTDYTLTISSLESEDFAVYHCQQYHSWPLTFGGGTKLEIK | 0.6 | 21.4 nM | 0.6 |  |  | 
MAb 1038 (antibody, V domains shown, IgG1/kappa, CHO; also called H1483/L250) VH: EVQLLESGGGLIQPGGSLRLSCAASGFTVSSNYMSWVRQAPGKGLEWVSVIYSGGRTYYADSVKGRFTISRDSSKNTLYLQMNSLRAEDTAVYYCARNYYGSTMDYWGQGTLVTVSS VL: EIVLTQSPVTLSVPPGERASLSCRASQNIYTAVAWYQQKPGQAPRLLIYGASTRATGIPARFSGGGSGTDYTLTISSLESEDFAVYHCQQYHSWPLTFGGGTKLEIK |  |  |  |  | 0.25 | 0.25
MAb 1037 (antibody, V domains shown, IgG1/kappa, CHO; also called H1482/L250) VH: EVQLLESGGGLIQPGGSLRLSCAASGFTVSSNYMSWVRQAPGKGLEWVSVIYSGGRTYYADSVKGRFTISRDSSKNTLYLQMNSLRAEDTAVYYCARNYYGSTFDYWGQGTLVTVSS VL: EIVLTQSPVTLSVPPGERASLSCRASQNIYTAVAWYQQKPGQAPRLLIYGASTRATGIPARFSGGGSGTDYTLTISSLESEDFAVYHCQQYHSWPLTFGGGTKLEIK |  |  |  |  | 0.12 | 0.12
MAb 698 (antibody, V domains shown, also called 131 E11; H1272/L250) VH: EVQLLESGGGLIQPGGSLRLSCAASGFTVGNNYMSWVRQAPGKGLEWVSVIYSAGSTYYADSVKGRFIISRDNSKDTVYLQMNSLRVDDTAVYYCARNYYGSTYDYWGQGTLVTVSS VL: EIVLTQSPVTLSVPPGERASLSCRASQNIYTAVAWYQQKPGQAPRLLIYGASTRATGIPARFSGGGSGTDYTLTISSLESEDFAVYHCQQYHSWPLTFGGGTKLEIK | 2.3 | 152 nM | 2.3 |  |  | 
MAb 1066 (antibody, V domains shown, IgG1/kappa, CHO; also called H1487/L250) VH: EVQLLESGGGLIQPGGSLRLSCAASGFTVSSNYMSWVRQAPGKGLEWVSVIYSGGRTYYADSVKGRFTISRDSSKNTLYLQMNSLRAEDTAVYYCARNYYGSTLDYWGQGTLVTVSS VL: EIVLTQSPVTLSVPPGERASLSCRASQNIYTAVAWYQQKPGQAPRLLIYGASTRATGIPARFSGGGSGTDYTLTISSLESEDFAVYHCQQYHSWPLTFGGGTKLEIK |  |  |  |  | 0.13 | 0.13
MAb 1007 (antibody, V domains shown) VH: EVQLVESGGGLIQPGGSLRLSCAVSGLNVSRDYMSWVRQAPGKGLEWISVIYRGGATMYADSVKGRFTISRDTSKNTVFLQMSRLKVADTAVYYCARNYYGSTYDYWGQGTLVTVSS VL: EIVLTQSPVTLSVPPGERASLSCRASQNIYTAVAWYQQKPGQAPRLLIYGASTRATGIPARFSGGGSGTDYTLTISSLESEDFAVYHCQQWHSWPLTFGGGTKLEIK |  | 12.2 nM |  |  |  | 
MAb 874 (antibody, V domains shown, IgG1/kappa, CHO; also called H1373/L250) VH: EVQLLESGGGLIQPGGSLRLSCAASGFTVSSNYMSWVRQAPGKGLEWVSVIYSGGRTYYADSVKGRFTISRDSSKNTLYLQMNSLRAEDTAVYYCARNYAGSTYDYWGQGTLVTVSS VL: EIVLTQSPVTLSVPPGERASLSCRASQNIYTAVAWYQQKPGQAPRLLIYGASTRATGIPARFSGGGSGTDYTLTISSLESEDFAVYHCQQYHSWPLTFGGGTKLEIK |  |  |  |  | 0.56 | 0.56
MAb 716 (antibody, V domains shown, also called 142 F2; H1280/L250) VH: EVQLLESGGGLIQPGGSLRLSCAASGFTVSSNYMSWVRQAPGKGLEWVSVIYSGGSTYYADSVKGRFTISRDNSKNTLYLQMNSLRAEDTAVYYCARNYYGSTYDYWGQGTLVTVSS VL: EIVLTQSPVTLSVPPGERASLSCRASQNIYTAVAWYQQKPGQAPRLLIYGASTRATGIPARFSGGGSGTDYTLTISSLESEDFAVYHCQQYHSWPLTFGGGTKLEIK | > 10 | 31.4 nM | > 10 |  |  | 
MAb 1132 (antibody, V domains shown, IgG1/kappa, CHO; also called H1518/L250) VH: EVQLLESGGGLIQPGGSLRLSCAASGFTVSSNYMSWVRQAPGKGLEWVSVIYSGGRTYYADSVKGRFTISRDSSKNTLYLQMNSLRAEDTAVYYCARNYYGSTHDYWGQGTLVTVSS VL: EIVLTQSPVTLSVPPGERASLSCRASQNIYTAVAWYQQKPGQAPRLLIYGASTRATGIPARFSGGGSGTDYTLTISSLESEDFAVYHCQQYHSWPLTFGGGTKLEIK |  |  |  |  | 0.1 | 0.1
MAb 699 (antibody, V domains shown, also called 183 E9; H1273/L250) VH: EVQLLESGGGLIQPGGSLRLSCAASGFTVSSNYMSWVRQAPGKGLEWVSVIYSGGSTYYADSVKGRFTISRDNAKNTVYLQMNSLRSEDTAVYYCARNYYGSTYDYWGQGTLVTVSS VL: EIVLTQSPVTLSVPPGERASLSCRASQNIYTAVAWYQQKPGQAPRLLIYGASTRATGIPARFSGGGSGTDYTLTISSLESEDFAVYHCQQYHSWPLTFGGGTKLEIK | 7.3 | 350 nM | 7.3 |  |  | 
MAb 892 (antibody, V domains shown, IgG1/kappa, CHO; also called H1388/L250) VH: EVQLLESGGGLIQPGGSLRLSCAASGFTVSSNYMSWVRQAPGKGLEWVSVIYSGGRTYYADSVKGRFTISRDSSKNTLYLQMNSLRAEDTAVYYCARNYYGSLYDYWGQGTLVTVSS VL: EIVLTQSPVTLSVPPGERASLSCRASQNIYTAVAWYQQKPGQAPRLLIYGASTRATGIPARFSGGGSGTDYTLTISSLESEDFAVYHCQQYHSWPLTFGGGTKLEIK |  |  |  |  | 0.43 | 0.43
MAb 1028 (antibody, V domains shown, IgG1/kappa, CHO; also called H1478/L250) VH: EVQLLESGGGLIQPGGSLRLSCAASGFTVSSNYMSWVRQAPGKGLEWVSVIYSGGRTYYADSVKGRFTISRDSSKNTLYLQMNSLRAEDTAVYYCARTYYGSTYDYWGQGTLVTVSS VL: EIVLTQSPVTLSVPPGERASLSCRASQNIYTAVAWYQQKPGQAPRLLIYGASTRATGIPARFSGGGSGTDYTLTISSLESEDFAVYHCQQYHSWPLTFGGGTKLEIK |  |  |  |  | 0.32 | 0.32
MAb 1029 (antibody, V domains shown, IgG1/kappa, CHO; also called H1479/L250) VH: EVQLLESGGGLIQPGGSLRLSCAASGFTVSSNYMSWVRQAPGKGLEWVSVIYSGGRTYYADSVKGRFTISRDSSKNTLYLQMNSLRAEDTAVYYCARLYYGSTYDYWGQGTLVTVSS VL: EIVLTQSPVTLSVPPGERASLSCRASQNIYTAVAWYQQKPGQAPRLLIYGASTRATGIPARFSGGGSGTDYTLTISSLESEDFAVYHCQQYHSWPLTFGGGTKLEIK |  |  |  |  | 0.36 | 0.36
MAb 696 (antibody, V domains shown, also called 121 E1B; H1193/L250) VH: EVQLVESGGGLIQPGGSLRLSCAASGFTVSSNYMSWVRQAPGKGLEWVSVIYSGGRTYYADSVKGRFTISRDSSKNTLYLQMNSLRAEDTAVYYCARNYYGSTYDYWGQGTLVTVSS VL: EIVLTQSPVTLSVPPGERASLSCRASQNIYTAVAWYQQKPGQAPRLLIYGASTRATGIPARFSGGGSGTDYTLTISSLESEDFAVYHCQQYHSWPLTFGGGTKLEIK | 0.6 |  | 0.6 |  |  | 
